A short description of series [1]: amyloid nucleation score (Sup35N fusion, yeast selection) (log enrichment); library NNK1; higher = more nucleation; inactive = no reads after selection. The essentials: (§1)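 For the nucleation score, DiMSum gave the log enrichment of output over input reads, centred on the mode score of non-aggregating sequences. Psi-negative yeast expressing Sup35N fused to peptides of 20 random codons were induced with 100 μM copper sulfate for 24 hours and grown 7 days at 30°C on medium lacking adenine and uracil. Input and output plasmid inserts were Illumina-sequenced, and sequences with under 100 input reads were excluded.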

A short description of series [2]: amyloid nucleation score (Sup35N fusion, yeast selection) (log enrichment); library NNK2; higher = more nucleation; inactive = no reads after selection. The essentials: as §1

± gives the uncertainty stated by the source.

For GTNCHL, in series [1], the amyloid nucleation score was -0.036 ± 0.79.
Still for that read-out and setting: the same measure for GVPVYAVFLVDAMMYVCCMF: 3.51 ± 0.14.
VMVFGSMPVDDLLHFWLECY showed an amyloid nucleation score in series [1] of -0.102 ± 0.42.
Substance QTNKLEGVANSGKIITNKSG came in with an amyloid nucleation score in series [1] of 0.021 ± 0.97.
AYASFDGDPEGRGFTSSKGD: the amyloid nucleation score entry in series [1] is “inactive”.
For MDSCFVLAHVAGNRMVLWNA, the amyloid nucleation score in series [1] came out at 0.268 ± 0.43.
In turn, RGEILCWWIGFYFVAVK showed an amyloid nucleation score in series [1] of 0.149 ± 0.32.
In series [1], ADDYCQPGKIGVNNGPHRKR came in with an amyloid nucleation score of -0.657 ± 1.7.
Still for that read-out and setting: the same measure for PVGYYILGMNGRVMNWSQRQ: 1.73 ± 0.52; for SYMSLAFIS: 0.004 ± 0.69; for KYIYNPSPLGSREDDTKACR: 0.937 ± 0.49.
Regarding IVETLCRYCVPRVMVTFVGQ, in series [1], the amyloid nucleation score entry is “inactive”.
The same measure, in the same setting: the same measure for TSGFLPLKTKMF: 0.252 ± 0.8; for HWIMAMFMSPPANTHDEAEI: 2.45 ± 0.15.
As for PDSFCFTMHLRKDEMMTSCK, the amyloid nucleation score in series [1] is -0.053 ± 1.
FSYCAFHIMNQWVVFNYGGC showed an amyloid nucleation score in series [1] of 6.421 ± 0.06.
In series [1], YVSAGWVYRSYFGIIFILRN had an amyloid nucleation score of -0.873 ± 1.1.
As to SKQGRCLTFYQYVSLIISSM, the amyloid nucleation score in series [1] is -0.022 ± 0.18.
In series [1], MLTPDLSSDLDILRPTSPLT returned an amyloid nucleation score of 0.879 ± 0.51.
For the substance RVFLMCCVGEMLRMLQLSSD, the amyloid nucleation score in series [1] was found to be 6.46 ± 0.073.
The same measure, in the same setting: the same measure for EQHSPHPTIEKIALTCFTRC: -0.189 ± 0.4; for SFYYIWRGLVTSED: -0.779 ± 0.8.
Consider FTDLFPEDRIWVPDYAGQRR, for which, in series [1], the amyloid nucleation score is 0.255 ± 1.4.
SAAYQALLTNSYFSLFDVSW yielded an amyloid nucleation score in series [1] of 0.823 ± 0.21.
Same read-out and setting: the same measure for WLFLTYNVMGLKVGKFAGHT: -0.437 ± 0.42; for RVSSHGLILHFDKDNSMIAV: 0.936 ± 0.61; for AFLCESFSLVWYWLLWEWRW: -0.126 ± 0.77.
On the same count and under the same terms, the same measure for ACQGWGTWEELGHDERTDLV: 0.817 ± 0.41.
In series [1], VFNTVVS returned an amyloid nucleation score of -0.161 ± 0.41.
The substance SSLGAIYGLINQRPA gave an amyloid nucleation score in series [1] of 0.776 ± 1.
In turn, LRWPFCQGLYTYLCSLT yielded an amyloid nucleation score in series [1] of 1.39 ± 0.47.
Consider IVLTHYGSVLFHSYKGYFMW, for which the amyloid nucleation score in series [1] was -0.197 ± 0.29.
DVIHDICHAVSIIGAWCRDR came in with an amyloid nucleation score in series [1] of -0.061 ± 0.3.
Substance TGSLG had an amyloid nucleation score in series [1] of -0.214 ± 0.31.
Still for that read-out and setting: the same measure for VVISIYGMYRSFTPQLWFKA: -0.603 ± 0.68.
For VNEIRT, in series [1], the amyloid nucleation score was -0.153 ± 1.2.
In series [1], YDTTTHMRISMVGSSQPVCL came in with an amyloid nucleation score of -0.327 ± 0.3.
The same measure, in the same setting: the same measure for GAPLTENKFVLRNFVMGSAL: 0.159 ± 0.77; for SRWGPRL: -0.494 ± 0.71.
Substance GFHSQG came in with an amyloid nucleation score in series [1] of -0.172 ± 0.41.
In the case of WQQWGRSPRTR, in series [1], the amyloid nucleation score came to 0.368 ± 0.46.
As to VMYRCSRSALNLHVRRNWRW, in series [2], the amyloid nucleation score came out at 0.455 ± 0.65.
QLRRFERMLSLVM: the amyloid nucleation score in series [2] is 1.31 ± 0.3.
In turn, AFHRECPGSSVQDWFTWRGT had an amyloid nucleation score in series [2] of -0.36 ± 0.63.
Still for that read-out and setting: the same measure for RGSNVGMRDLAYRPHSGQMW: 1.68 ± 0.56; for CYKWLAYY: -1.44 ± 0.75.
Consider YFGSCPREKLGILYKELLVL, for which the amyloid nucleation score in series [2] was -0.563 ± 0.79.
Still for that read-out and setting: the same measure for FFEFKDNSSWFK: 3.3 ± 0.052; for DSLYWSRCSSFRTKQEVSDM: 0.907 ± 0.3; for QLVMCGHEDQYIRSDRSERN: -0.112 ± 0.25.
For the substance CCGLGELNLALLRELSWRVG, the amyloid nucleation score in series [2] was determined as 1.34 ± 0.25.
In turn, INNLRSCLSMY came in with an amyloid nucleation score in series [2] of 0.562 ± 0.57.
LAQSYVSYS returned an amyloid nucleation score in series [2] of -1.45 ± 0.54.
On to CKALQLLKGNLIDYCVPFLV, for which the amyloid nucleation score in series [2] is -1.05 ± 0.48.
For the substance SCTDLLYDIDCIHSHECLLL, the amyloid nucleation score in series [2] was -0.397 ± 0.35.
In the case of MPSRYMIVMFNLTLPRRGVG, the amyloid nucleation score in series [2] was -0.226 ± 0.55.
The substance FCSHMLARTYLKCGREDR showed an amyloid nucleation score in series [2] of -0.337 ± 1.
Turning to CFMYT, the amyloid nucleation score in series [2] was -0.415 ± 0.21.
Turning to CTAQRNGKYDHGEDSLRLSR, in series [2], the amyloid nucleation score was 1.49 ± 0.36.
Still for that read-out and setting: the same measure for YGFENLVSILKFVQVNSKCG: 1.38 ± 0.085; for KYMINAYTAGWIGV: -1.41 ± 0.34.
VSNPSGVREPATTGGQSLAI: the amyloid nucleation score in series [2] is 0.966 ± 0.47.
On the same count and under the same terms, the same measure for YAVAEGFVASGYWTAYMPLS: 0.487 ± 0.62; for DECCMWMVLPEGSPAQRPLG: 1.04 ± 0.34.
Same read-out and setting: the same measure for IAKPSVRHMYSFHVVDKTGH: “inactive”.
On the same count and under the same terms, the same measure for SWGFI: -2.19 ± 0.62; for CCNQEVLD: 0.575 ± 0.66.
VTLSGYRVPLTLWDFGRCLC had an amyloid nucleation score in series [2] of -0.565 ± 0.35.
Regarding GRILNAEVFGVINASDNCAD, the amyloid nucleation score in series [2] is -0.412 ± 0.63.
Consider GSLVQNVFTMDGGDYHMR, for which the amyloid nucleation score in series [2] stood at 0.307 ± 0.27.
In series [2], HRVQSGLCSKNSRE yielded an amyloid nucleation score of 2.96 ± 0.15.
Take NVVIRNRFWMNSGRARISAY: the amyloid nucleation score in series [2] is -0.428 ± 0.49.
TRTQMW came in with an amyloid nucleation score in series [2] of 0.739 ± 0.43.
For NHITMFDRVSYYVKLKHYVA, the amyloid nucleation score in series [2] turned out to be 0.452 ± 0.37.
VRRYYDSKSSIAYMLSIRVD showed an amyloid nucleation score in series [2] of -0.447 ± 0.27.
In series [2], VSVHAVGLSYCMICFSLQNG showed an amyloid nucleation score of -0.611 ± 0.23.
LVQCRNVSMNTILSIGGGKS showed an amyloid nucleation score in series [2] of 6.17 ± 0.075.
Substance MNFESNFRNTKCEIFIVIYN showed an amyloid nucleation score in series [2] of 4.62 ± 0.11.
VMRAMFSRAPFGPRNSSPLN: the amyloid nucleation score in series [2] is 0.417 ± 0.37.
As to PKWIPYSRRWPWAYIF, in series [2], the amyloid nucleation score is -1.2 ± 0.48.
In series [2], KAWTLVRHDVLLYV showed an amyloid nucleation score of -0.316 ± 0.44.
Still for that read-out and setting: the same measure for NVDLFWQWVYVYWRGARVEF: 0.075 ± 0.43; for VAFNGYLY: -0.89 ± 0.48.
Substance HYRIWVMHMWDCYWTTNFHG yielded an amyloid nucleation score in series [2] of -0.393 ± 0.63.
As to PGYSVVIWELSEEGTFYKRK, the amyloid nucleation score entry in series [2] is “inactive”.
Take SSGGIDQFGRESISHHWLC: in series [2], the amyloid nucleation score was -0.858 ± 0.76.
On the same count and under the same terms, the same measure for PVFRFTSGPLDKNCVYRVN: 0.564 ± 0.57; for RHMSTVKTLSEGLNLESGLI: -0.519 ± 0.74; for SFWDRGFNIRQ: 6.145 ± 0.038.
Turning to ATYPVSATGSGELWVDRGQE, the amyloid nucleation score in series [2] is 0.603 ± 0.38.
Take TLFIMC: in series [2], the amyloid nucleation score is 0.074 ± 0.54.
Regarding RTEMHYARQRHELDVPVWL, the amyloid nucleation score in series [2] came to 0.25 ± 0.49.
Substance CWFSVYNTLVGCNLVPTKGD came in with an amyloid nucleation score in series [2] of 6.666 ± 0.065.
With PGRLKCGNSRYFWYFDMRHV, the amyloid nucleation score result in series [2] is “inactive”.
For CDKQRFSRF, the amyloid nucleation score entry in series [2] is “inactive”.
Same read-out and setting: the same measure for TRCKHDDVW: 1.5 ± 0.33; for TDLIINMSQNR: 2.42 ± 0.1.
FLSDATAYH: the amyloid nucleation score entry in series [2] is “inactive”.
Still for that read-out and setting: the same measure for RVNGLKSRVSRVRIGNVS: 0.224 ± 0.23; for CMYVLFLRWLNQAM: “inactive”; for QCWLGTGFLRVLACAVAFLY: “inactive”.
Take IQPPQFFAFI: the amyloid nucleation score entry in series [2] is “inactive”.
In turn, PKPTYTP had an amyloid nucleation score in series [2] of 0.292 ± 0.38.
Take MEKARTGGGSVTHDGKCARW: the amyloid nucleation score in series [2] came out at 0.649 ± 0.22.
Substance ISMTL gave an amyloid nucleation score in series [2] of 6.15 ± 0.081.
YAFSCFKSNVFWKGTGNRRG yielded an amyloid nucleation score in series [2] of -0.973 ± 0.63.
On the same count and under the same terms, the same measure for TPDVLGLRHYRLTIVTYH: 1.22 ± 0.31; for SWSRYGCGVYSDVGVTLLQF: 0.201 ± 0.63; for AWSLFYRLLPPWNE: -0.656 ± 1.1.
For the substance QSMSNACFVMGTRCITKRAA, the amyloid nucleation score in series [2] came out at 4.633 ± 0.044.
Same read-out and setting: the same measure for SAINIFGALAKCFMVMLALF: “inactive”; for IGDYLRLELVL: 0.187 ± 0.74.
On to VLVMLGGNSARVSCNWVM, for which the amyloid nucleation score in series [2] was 7.457 ± 0.031.
On to RSLLRFQ, for which the amyloid nucleation score in series [2] amounted to 0.874 ± 0.14.
In the case of TLGGSSTFRY, the amyloid nucleation score in series [2] was -0.152 ± 0.45.
For the substance IGVSNLLCMFTLDPKGIQDG, in series [2], the amyloid nucleation score was determined as 8.488 ± 0.056.
In series [2], RTRDPRIFLSVCTGYTRRYY returned an amyloid nucleation score of -1.28 ± 0.76.
As for RTIAVSQWLASHGTVLVWPD, the amyloid nucleation score result in series [2] is “inactive”.
VIPSSILLEGYVLLYACYLP: in series [2], the amyloid nucleation score was -0.217 ± 0.44.
Still for that read-out and setting: the same measure for NLRSYIRGSLFGFCSRLWEN: 3.09 ± 0.08.
Still for that read-out and setting: the same measure for MGGQLLSNECLHSDSFVCFH: 1.21 ± 0.47.
Still for that read-out and setting: the same measure for HYFEIVA: -0.315 ± 0.45; for MSFNQLIMFETRSSTPYRWR: 5.71 ± 0.078.
On to ITLSSS, for which, in series [2], the amyloid nucleation score is 0.853 ± 0.2.
SVLVVPVT had an amyloid nucleation score in series [2] of 0.182 ± 0.79.
On to RYYVSEPLGDFAWFFPGDHR, for which the amyloid nucleation score result in series [2] is “inactive”.
In series [2], RFWPWLLVRPNFPMLSQ came in with an amyloid nucleation score of 0.216 ± 0.37.
On the same count and under the same terms, the same measure for ISYVCGPFICVLNLFYQI: 6.04 ± 0.066; for CRINFTFDELVVVSQILTWL: 4.07 ± 0.058.
Turning to VRWMITHNFRVF, the amyloid nucleation score entry in series [2] is “inactive”.
Substance YCNNYG returned an amyloid nucleation score in series [2] of -2.65 ± 0.75.
As for KKSSVPTSYLYVNENFLTVL, in series [2], the amyloid nucleation score is 6.965 ± 0.054.
The substance VPLGECIPNFLSTYGGYVVS yielded an amyloid nucleation score in series [2] of -0.287 ± 0.33.
Substance GWRKSLNWCVYVGEGASIVV yielded an amyloid nucleation score in series [2] of 0.517 ± 0.25.
Still for that read-out and setting: the same measure for ASAAAHVRIYQMIFVFERQL: 0.001 ± 0.48; for HVCCFKSQDRCYWVG: -0.447 ± 0.63; for GGTPRSINVF: 0.201 ± 0.8.
As to LSVDQSSSELSTDLFDFLHF, in series [2], the amyloid nucleation score result was “inactive”.

(Values after the supplement of paper PMC12042874.)
